Test results taken from patent US5874287.

Target: G protein alpha subunit of human erythrocyte membranes (human) (UniProt P63092)

Which SPECIFIC ACTIVITY FOR HEM G. PROTEIN (ADP-ribosyltransferase, relative) does the source give for “rCTXA1/T1 (CTXA1 truncated at Trp179) (enzyme)” here?
Its SPECIFIC ACTIVITY FOR HEM G. PROTEIN (ADP-ribosyltransferase, relative) is < 0.01.
